Laboratory results from US20220267441A1 (VOR BIOPHARMA, published 2022).
Like-named read-outs stand apart in the source and are kept apart here.

B1: AbB_D265C_LALA_H435A (antibody, human IgG1, kappa, L234A L235A, V domains shown)
VH: EVQLVESGGGLVQPGGSLRLSCAASGFTFTNFWMAWIRQAPGKGLEWVASISSSGGSIYYPDSVKDRFTISRDNSKNTLYLQMNSLRAEDTAVYYCVKFHHYSGGGDAWGQGTLVTVSS
VL: DIQMTQSPSSLSASVGDRVTITCKASQNINKYLDWYQQKPGKAPKLLIHYTNNLHTGIPSRFSGSGSGTDYTLTISSLQPEDFATYYCLQHSSRWTFGGGTKVEIKR
notes: also called Fc variant of AbB
B2: AbC_D265C_LALA_H435A (antibody, human IgG1, kappa, L234A L235A, V domains shown)
VH: EVQLVESGGGLVQPGGSLRLSCAASGFTFNNYWMTWVRQAPGKGLEWVSSISSSGGSIYYPDSVKDRFTISRDNAKNSLYLQMNSLRAEDMAVYYCARLYYYDGGGDAWGQGTLVTVSS
VL: GIQMTQSPSSLSASVGDRVTITCKASQDINKYLDWYQQKPGKAPKLLIYNTNNLHTGIPSRFSGSGSGTDYTLTISSLQPEDFATYYCLQHISRWTFGGGTKVEIKR
notes: also called Fc variant of AbC
B3: Antibody 1 (Ab1) (antibody, V domains shown)
VH: QVQLVESGGGLVKPGGSLRLSCAASGFTFSSYSMNWVRQAPGKGLEWVSYISSSSSTIYYADSVKGRFTISRDNAKNSLYLQMNSLRAEDTAVYYCARGGQYYYDSSRYGEVAFDIWGQGTMVTVSS
VL: not shown
notes: Fully human IgG from yeast display; also called Parent 1; parent clone Ab1
B4: Ab5 (D265C LALA H435A) (antibody, human IgG1, kappa, L234A L235A, V domains shown)
VH: EVQLVESGGGLVQPGGSLRLSCAASGFTFEAYSMNWVRQAPGKGLEWVSYISLSGATIHYADSVKGRFTISRDNAKNSLYLQMNSLRAEDTAVYYCARGGQYYYTSSDYGEVAFDIWGQGTMVTVSS
VL: DIVMTQSPLSLPVTPGEPASISCRSSQSLVSSGYNYLDWYLQKPGQSPQLLIYFGSSRASGVPDRFSGSGSGTDFTLKISRVEAEDVGVYYCMQRRRTPWSFGGGTKVEIKR
B5: Ab7 (D265C LALA H435A) (antibody, human IgG1, kappa, L234A L235A, V domains shown)
VH: QVQLVESGGGLVKPGGSLRLSCAASGFTFGGYSMNWVRQAPGKGLEWVSYISISGATITYADSVKGRFTISRDNAKNSLYLQMNSLRAEDTAVYYCARGGQYYYDSSDYGEVAFDIWGQGTMVTVSS
VL: DIVMTQSPLSLPVTPGEPASISCRSSQSLVSSGYNYLDWYLQKPGQSPQLLIYFGSSRASGVPDRFSGSGSGTDFTLKISRVEAEDVGVYYCMQRRRTPPFTFGGGTKVEIKR

Tests used:
[1] = target: T1, cynomolgus CD45 on live cells (primary cynomolgus PBMCs) (cynomolgus monkey); assay: flow cytometry on PBMCs; cyno EC50 against human EC50
T1 construct: Endogenous CD45 on PBMCs; also called cyno CD45; Cyno PBMC
T1 chain: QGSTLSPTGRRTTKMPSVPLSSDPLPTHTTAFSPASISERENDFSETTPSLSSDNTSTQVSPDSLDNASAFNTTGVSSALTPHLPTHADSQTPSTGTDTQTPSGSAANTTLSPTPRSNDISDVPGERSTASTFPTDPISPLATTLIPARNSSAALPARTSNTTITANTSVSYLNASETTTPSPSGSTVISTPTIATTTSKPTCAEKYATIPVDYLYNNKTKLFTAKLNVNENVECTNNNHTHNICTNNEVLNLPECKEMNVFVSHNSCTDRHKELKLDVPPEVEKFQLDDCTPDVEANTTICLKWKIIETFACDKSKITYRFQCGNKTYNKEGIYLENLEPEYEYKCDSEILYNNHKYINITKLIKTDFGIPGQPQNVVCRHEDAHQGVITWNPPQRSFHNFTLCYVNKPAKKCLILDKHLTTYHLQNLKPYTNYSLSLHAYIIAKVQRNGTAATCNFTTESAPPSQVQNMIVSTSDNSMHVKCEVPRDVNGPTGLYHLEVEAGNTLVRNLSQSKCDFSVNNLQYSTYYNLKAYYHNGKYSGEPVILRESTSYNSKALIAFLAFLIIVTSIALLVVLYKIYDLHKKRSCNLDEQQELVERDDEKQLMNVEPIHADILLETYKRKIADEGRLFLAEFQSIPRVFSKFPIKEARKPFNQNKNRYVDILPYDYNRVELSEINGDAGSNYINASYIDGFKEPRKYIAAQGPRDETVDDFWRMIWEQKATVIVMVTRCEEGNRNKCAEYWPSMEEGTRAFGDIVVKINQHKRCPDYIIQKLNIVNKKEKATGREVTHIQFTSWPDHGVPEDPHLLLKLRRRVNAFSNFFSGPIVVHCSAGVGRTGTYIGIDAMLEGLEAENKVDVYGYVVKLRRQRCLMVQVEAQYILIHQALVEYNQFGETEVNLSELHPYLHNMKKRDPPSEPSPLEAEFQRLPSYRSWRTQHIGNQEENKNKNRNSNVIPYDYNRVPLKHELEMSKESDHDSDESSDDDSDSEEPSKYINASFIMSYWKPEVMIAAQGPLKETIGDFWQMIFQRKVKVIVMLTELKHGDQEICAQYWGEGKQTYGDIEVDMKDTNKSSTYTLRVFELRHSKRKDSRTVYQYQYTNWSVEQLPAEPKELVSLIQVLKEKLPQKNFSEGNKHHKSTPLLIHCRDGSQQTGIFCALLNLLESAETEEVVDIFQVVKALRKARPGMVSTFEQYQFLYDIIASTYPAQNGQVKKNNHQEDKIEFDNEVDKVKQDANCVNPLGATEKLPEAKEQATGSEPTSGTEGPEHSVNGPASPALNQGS

[2] = target: T2, human CD45 on live cells (REH-1 cells, primary human PBMCs) (human, UniProt P08575 26-1306); assay: flow cytometry on human PBMCs, overnight 37 C, AF488 anti-human IgG
T2 construct: Endogenous CD45
T2 sequence: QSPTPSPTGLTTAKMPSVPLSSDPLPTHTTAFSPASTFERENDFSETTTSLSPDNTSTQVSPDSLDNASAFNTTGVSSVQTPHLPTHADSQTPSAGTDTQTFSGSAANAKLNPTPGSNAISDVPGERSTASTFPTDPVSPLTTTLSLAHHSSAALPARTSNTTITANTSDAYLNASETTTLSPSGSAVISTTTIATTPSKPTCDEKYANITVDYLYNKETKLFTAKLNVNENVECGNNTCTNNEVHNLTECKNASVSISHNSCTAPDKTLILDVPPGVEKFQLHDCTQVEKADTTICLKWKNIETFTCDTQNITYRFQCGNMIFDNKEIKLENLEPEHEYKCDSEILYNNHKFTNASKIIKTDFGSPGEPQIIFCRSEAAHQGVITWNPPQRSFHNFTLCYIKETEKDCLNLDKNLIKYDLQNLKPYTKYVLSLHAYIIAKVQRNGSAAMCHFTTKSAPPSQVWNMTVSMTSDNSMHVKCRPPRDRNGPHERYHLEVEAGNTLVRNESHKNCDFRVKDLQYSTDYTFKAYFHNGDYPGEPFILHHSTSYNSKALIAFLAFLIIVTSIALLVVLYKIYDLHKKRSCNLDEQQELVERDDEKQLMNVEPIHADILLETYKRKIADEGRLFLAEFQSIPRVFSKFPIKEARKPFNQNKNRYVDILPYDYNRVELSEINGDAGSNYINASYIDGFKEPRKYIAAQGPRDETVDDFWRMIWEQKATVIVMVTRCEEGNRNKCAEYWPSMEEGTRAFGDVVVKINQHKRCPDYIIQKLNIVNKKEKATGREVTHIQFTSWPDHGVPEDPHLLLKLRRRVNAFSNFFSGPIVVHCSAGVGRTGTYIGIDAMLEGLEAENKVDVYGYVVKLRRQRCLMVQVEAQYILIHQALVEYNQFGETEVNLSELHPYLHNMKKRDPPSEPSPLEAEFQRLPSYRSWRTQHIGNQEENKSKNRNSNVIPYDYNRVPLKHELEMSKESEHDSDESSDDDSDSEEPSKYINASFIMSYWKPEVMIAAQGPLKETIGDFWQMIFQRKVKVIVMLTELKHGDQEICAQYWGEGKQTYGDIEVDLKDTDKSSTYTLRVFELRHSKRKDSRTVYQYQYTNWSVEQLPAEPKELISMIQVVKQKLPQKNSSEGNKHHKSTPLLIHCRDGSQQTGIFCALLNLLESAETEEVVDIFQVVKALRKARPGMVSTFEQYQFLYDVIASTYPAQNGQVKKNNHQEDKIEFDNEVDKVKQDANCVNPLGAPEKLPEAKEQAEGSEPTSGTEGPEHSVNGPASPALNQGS

[3] = target: T1, cynomolgus CD45 on live cells (primary …); assay: flow cytometry on cynomolgus PBMCs, overnight 37 C, AF488 anti-human IgG
[4] = target: T3, purified human CD45 ectodomain (human CD45RABC antigen) (human, UniProt P08575 26-577); assay: BLI (Octet Red96), IgG on anti-human Fc sensor, 100 nM CD45 ectodomain, 1:1 fit
T3 construct: also called hCD45
T3 sequence: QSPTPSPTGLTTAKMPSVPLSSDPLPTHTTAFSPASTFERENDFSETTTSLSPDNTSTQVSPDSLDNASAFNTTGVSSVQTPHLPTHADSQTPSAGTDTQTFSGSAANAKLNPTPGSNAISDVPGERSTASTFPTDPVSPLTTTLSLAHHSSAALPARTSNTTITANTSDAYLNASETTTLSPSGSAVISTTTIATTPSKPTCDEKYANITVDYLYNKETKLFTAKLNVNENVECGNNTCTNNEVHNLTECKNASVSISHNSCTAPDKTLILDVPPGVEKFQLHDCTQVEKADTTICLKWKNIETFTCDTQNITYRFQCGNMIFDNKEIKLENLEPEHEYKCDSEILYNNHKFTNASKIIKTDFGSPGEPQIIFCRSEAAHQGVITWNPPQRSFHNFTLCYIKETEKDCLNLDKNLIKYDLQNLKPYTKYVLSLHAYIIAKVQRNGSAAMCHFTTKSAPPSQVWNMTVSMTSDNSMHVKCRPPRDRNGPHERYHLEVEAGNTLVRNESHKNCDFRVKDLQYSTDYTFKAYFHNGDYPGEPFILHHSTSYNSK

[5] = target: T2, human CD45 on live cells (REH-1 cells, …); assay: flow cytometry on REH-1 cells, overnight 37 C, AF488 anti-human IgG
[6] = target: T2, human CD45 on live cells (REH-1 cells, …); assay: flow cytometry on human PBMCs, overnight 37 C, AF488 anti-human IgG; remark: listed apart in the source
[7] = target: T1, cynomolgus CD45 on live cells (primary …); assay: flow cytometry on cynomolgus PBMCs, overnight 37 C, AF488 anti-human IgG

Binder | Cyno/Human Ratio (EC50) [1] | EC50 [2] | EC50 [3] | koff [4] | kon [4] | EC50 [5] | EC50 [6] | EC50 [7]
B1 | 1.36 ratio | 2.2 nM | 2.9 nM | – | – | – | – | –
B2 | 1.49 ratio | 2.2 nM | 3.3 nM | – | – | – | – | –
B3 | – | – | – | 0.0499 s⁻¹ | 458000 M⁻¹ s⁻¹ | – | – | –
B4 | – | – | – | – | – | 0.3 nM | 1.4 nM | 1.3 nM
B5 | – | – | – | – | – | 0.2 nM | 1 nM | 1.3 nM
